Publication PMC9482650, “Quantitative fragmentomics allow affinity mapping of interactomes” (Nature Communications, 2022)

T1: APBA2_1, Q99767
T1 sequence (Q99767 563-664, limits assumed, looked up): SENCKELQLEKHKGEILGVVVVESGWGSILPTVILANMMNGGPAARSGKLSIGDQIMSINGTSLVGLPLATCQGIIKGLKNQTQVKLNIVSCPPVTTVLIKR

T2: DFNB31_3, Q9P202
T2 sequence (Q9P202 811-907, limits assumed, looked up): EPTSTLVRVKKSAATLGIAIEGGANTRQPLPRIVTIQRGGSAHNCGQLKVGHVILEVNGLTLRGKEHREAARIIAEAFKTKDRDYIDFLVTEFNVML

T3: DLG3_3, Q92796
T3 sequence (Q92796 374-475, limits assumed, looked up): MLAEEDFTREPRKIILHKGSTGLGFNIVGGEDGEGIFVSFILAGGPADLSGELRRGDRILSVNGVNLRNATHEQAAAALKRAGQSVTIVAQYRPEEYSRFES

T4: GRIP1_7, Q9Y3R0
T4 sequence (Q9Y3R0 999-1096, limits assumed, looked up): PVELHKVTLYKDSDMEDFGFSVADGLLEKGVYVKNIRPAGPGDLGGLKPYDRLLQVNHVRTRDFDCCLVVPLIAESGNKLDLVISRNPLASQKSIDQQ

T5: HTRA4, P83105
T5 sequence (P83105 378-476, limits assumed, looked up): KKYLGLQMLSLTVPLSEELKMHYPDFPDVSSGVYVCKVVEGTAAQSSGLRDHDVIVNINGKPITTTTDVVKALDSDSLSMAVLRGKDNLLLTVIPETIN

T6: PDZD2_2, O15018
T6 sequence (O15018 329-429, limits assumed, looked up): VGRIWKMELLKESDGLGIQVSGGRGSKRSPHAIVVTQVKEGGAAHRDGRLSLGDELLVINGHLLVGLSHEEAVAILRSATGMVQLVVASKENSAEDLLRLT

T7: TJP3_3, O95049
T7 sequence (O95049 375-456, limits assumed, looked up): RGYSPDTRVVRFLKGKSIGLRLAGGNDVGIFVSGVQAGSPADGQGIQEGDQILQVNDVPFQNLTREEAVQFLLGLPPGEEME

T8: NHERF3_1, Q5T2W1
T8 sequence (Q5T2W1 4-100, limits assumed, looked up): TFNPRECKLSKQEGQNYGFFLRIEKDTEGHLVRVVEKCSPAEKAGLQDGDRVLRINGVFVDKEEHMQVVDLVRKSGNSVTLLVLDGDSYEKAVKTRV

B1: PLCB4, Q15147 (peptide)
chain: EMDRRPATVV
B2: HPV18-E6, P06463 (peptide)
chain: RLQRRRETQV

Legend:
Assay in all cases: holdup assay
Design in all cases: key: below the threshold = too weak to quantify, mostly under pKd 3.1 to 4
Conditions in all cases: plain residues with an end cap or a label only (N-terminal biotin on a linker: ttds)
APBA2_1, Q99767 = target: T1, APBA2_1, Q99767
DFNB31_3, Q9P202 = target: T2, DFNB31_3, Q9P202
DLG2_2, Q15700 = target: DLG2_2, Q15700
DLG3_3, Q92796 = target: T3, DLG3_3, Q92796
DLG4_1, P78352 = target: DLG4_1, P78352
DLG4_2, P78352 = target: DLG4_2, P78352
DLG4_3, P78352 = target: DLG4_3, P78352
FRMPD2_1, Q68DX3 = target: FRMPD2_1, Q68DX3
FRMPD4, Q14CM0 = target: FRMPD4, Q14CM0
GOPC, Q9HD26 = target: GOPC, Q9HD26
GORASP2, Q9H8Y8 = target: GORASP2, Q9H8Y8
GRIP1_7, Q9Y3R0 = target: T4, GRIP1_7, Q9Y3R0
GRIP2_3, Q9C0E4 = target: GRIP2_3, Q9C0E4
HTRA4, P83105 = target: T5, HTRA4, P83105
LIMK2, P53671 = target: LIMK2, P53671
LNX1_1, Q8TBB1 = target: LNX1_1, Q8TBB1
LNX1_3, Q8TBB1 = target: LNX1_3, Q8TBB1
MAGI2_3, Q86UL8 = target: MAGI2_3, Q86UL8
MAGI2_5, Q86UL8 = target: MAGI2_5, Q86UL8
MAST2, Q6P0Q8 = target: MAST2, Q6P0Q8
NHERF4_1, Q86UT5-2 = target: NHERF4_1, Q86UT5-2
NHERF4_4, Q86UT5 = target: NHERF4_4, Q86UT5
PDZD2_2, O15018 = target: T6, PDZD2_2, O15018
SCRIB_1, Q14160 = target: SCRIB_1, Q14160
SCRIB_2, Q14160 = target: SCRIB_2, Q14160
SNX27, Q96L92 = target: SNX27, Q96L92
TJP3_3, O95049 = target: T7, TJP3_3, O95049
DLG1_3, Q12959 = target: DLG1_3, Q12959
Inadl_2, Q8NI35 = target: Inadl_2, Q8NI35
Inadl_8, Q8NI35 = target: Inadl_8, Q8NI35
NHERF3_1, Q5T2W1 = target: T8, NHERF3_1, Q5T2W1

DLG4_1, P78352, sequence (P78352 62-152): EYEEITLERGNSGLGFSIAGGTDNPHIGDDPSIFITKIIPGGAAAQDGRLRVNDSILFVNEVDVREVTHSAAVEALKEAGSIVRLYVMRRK
GRIP2_3, Q9C0E4, sequence (Q9C0E4 238-339): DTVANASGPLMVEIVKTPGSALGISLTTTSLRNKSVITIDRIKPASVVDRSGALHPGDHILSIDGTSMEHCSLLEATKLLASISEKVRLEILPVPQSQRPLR
DLG4_3, P78352, sequence (P78352 306-403): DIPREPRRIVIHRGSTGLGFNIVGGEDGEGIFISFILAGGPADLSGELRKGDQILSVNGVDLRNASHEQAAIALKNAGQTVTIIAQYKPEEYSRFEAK
NHERF4_4, Q86UT5, sequence (Q86UT5 464-550): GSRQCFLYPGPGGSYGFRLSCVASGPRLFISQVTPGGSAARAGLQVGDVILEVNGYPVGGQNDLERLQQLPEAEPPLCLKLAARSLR
LNX1_1, Q8TBB1, sequence (Q8TBB1 261-371): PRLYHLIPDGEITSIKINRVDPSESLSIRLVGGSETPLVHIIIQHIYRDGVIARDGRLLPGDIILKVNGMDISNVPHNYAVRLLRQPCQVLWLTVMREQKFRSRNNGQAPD
FRMPD4, Q14CM0, sequence (Q14CM0 67-160): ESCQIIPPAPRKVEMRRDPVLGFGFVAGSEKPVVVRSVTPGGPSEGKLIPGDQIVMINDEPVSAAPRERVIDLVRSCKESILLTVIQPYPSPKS
LNX1_3, Q8TBB1, sequence (Q8TBB1 500-596): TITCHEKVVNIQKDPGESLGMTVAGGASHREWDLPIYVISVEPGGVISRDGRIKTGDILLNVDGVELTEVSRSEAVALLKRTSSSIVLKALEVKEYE
SCRIB_2, Q14160, sequence (Q14160 857-960): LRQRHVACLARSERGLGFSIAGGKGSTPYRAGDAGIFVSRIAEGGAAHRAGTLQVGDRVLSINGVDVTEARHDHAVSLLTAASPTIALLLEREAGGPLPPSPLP
DLG2_2, Q15700, sequence (Q15700 189-283): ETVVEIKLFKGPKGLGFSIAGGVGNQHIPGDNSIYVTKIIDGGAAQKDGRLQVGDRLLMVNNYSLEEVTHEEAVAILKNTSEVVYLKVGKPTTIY
MAGI2_5, Q86UL8, sequence (Q86UL8 915-1017): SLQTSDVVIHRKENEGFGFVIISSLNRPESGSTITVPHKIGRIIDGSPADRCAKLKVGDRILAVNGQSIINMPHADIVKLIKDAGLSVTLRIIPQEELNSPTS
MAGI2_3, Q86UL8, sequence (Q86UL8 600-682): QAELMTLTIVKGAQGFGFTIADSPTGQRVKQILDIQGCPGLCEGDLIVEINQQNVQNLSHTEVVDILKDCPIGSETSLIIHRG
LIMK2, P53671, sequence (P53671 143-248): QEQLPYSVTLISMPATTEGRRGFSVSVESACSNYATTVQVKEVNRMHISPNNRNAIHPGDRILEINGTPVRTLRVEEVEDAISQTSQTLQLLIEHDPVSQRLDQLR
FRMPD2_1, Q68DX3, sequence (Q68DX3 770-861): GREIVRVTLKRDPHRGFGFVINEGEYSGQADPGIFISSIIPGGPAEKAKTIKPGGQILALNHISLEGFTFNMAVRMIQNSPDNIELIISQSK
DLG4_2, P78352, sequence (P78352 155-259): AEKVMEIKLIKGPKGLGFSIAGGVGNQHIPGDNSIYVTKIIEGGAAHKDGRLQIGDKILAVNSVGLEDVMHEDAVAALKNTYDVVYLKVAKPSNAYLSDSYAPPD
SCRIB_1, Q14160, sequence (Q14160 718-814): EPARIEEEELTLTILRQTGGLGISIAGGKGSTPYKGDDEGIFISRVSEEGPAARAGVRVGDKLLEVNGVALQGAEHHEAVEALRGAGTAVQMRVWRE
NHERF4_1, Q86UT5-2, sequence (Q86UT5 other isoform, or with tags, fused parts or gaps): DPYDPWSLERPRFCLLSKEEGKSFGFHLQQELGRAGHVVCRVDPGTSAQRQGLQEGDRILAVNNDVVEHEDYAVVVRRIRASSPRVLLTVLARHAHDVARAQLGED
MAST2, Q6P0Q8, sequence (Q6P0Q8 1099-1202): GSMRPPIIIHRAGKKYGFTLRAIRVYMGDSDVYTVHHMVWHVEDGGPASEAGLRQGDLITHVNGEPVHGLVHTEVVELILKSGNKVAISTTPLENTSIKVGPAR
Inadl_8, Q8NI35, sequence (Q8NI35 1425-1530): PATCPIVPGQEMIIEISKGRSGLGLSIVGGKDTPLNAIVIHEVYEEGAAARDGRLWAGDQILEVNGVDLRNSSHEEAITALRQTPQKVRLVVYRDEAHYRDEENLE
DLG1_3, Q12959, sequence (Q12959 457-571): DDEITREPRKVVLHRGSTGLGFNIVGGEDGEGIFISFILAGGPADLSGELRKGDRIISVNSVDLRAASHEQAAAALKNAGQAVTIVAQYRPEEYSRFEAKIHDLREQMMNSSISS
Inadl_2, Q8NI35, sequence (Q8NI35 238-335): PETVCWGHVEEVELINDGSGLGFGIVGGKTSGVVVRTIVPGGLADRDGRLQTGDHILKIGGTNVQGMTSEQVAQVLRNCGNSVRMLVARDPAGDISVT

Row | Binder | pKd (APBA2_1, Q99767) | pKd (DFNB31_3, Q9P202) | pKd (DLG2_2, Q15700) | pKd (DLG3_3, Q92796) | pKd (DLG4_1, P78352) | pKd (DLG4_2, P78352) | pKd (DLG4_3, P78352) | pKd (FRMPD2_1, Q68DX3) | pKd (FRMPD4, Q14CM0) | pKd (GORASP2, Q9H8Y8) | pKd (GRIP1_7, Q9Y3R0) | pKd (GRIP2_3, Q9C0E4) | pKd (HTRA4, P83105) | pKd (LIMK2, P53671) | pKd (LNX1_1, Q8TBB1) | pKd (LNX1_3, Q8TBB1) | pKd (MAGI2_3, Q86UL8) | pKd (MAGI2_5, Q86UL8) | pKd (MAST2, Q6P0Q8) | pKd (NHERF4_1, Q86UT5-2) | also measured
1 | B1 | below the threshold | 3.69 | 4.23 | 3.78 | 4.13 | 4.25 | 3.95 | 3.97 | 3.55 | 4.23 | below the threshold | below the threshold | 3.6 | 3.52 | 4.01 | below the threshold | below the threshold | below the threshold | 3.89 | below the threshold | pKd (GOPC, Q9HD26): 4.04; pKd (NHERF4_4, Q86UT5): below the threshold; pKd (PDZD2_2, O15018): 3.87; pKd (SCRIB_1, Q14160): 3.84; pKd (SCRIB_2, Q14160): below the threshold; pKd (SNX27, Q96L92): below the threshold; pKd (TJP3_3, O95049): below the threshold
2 | B2 | below the threshold | below the threshold | 5.19 | 5.44 | 5.11 | 5.46 | 5.74 | 4.1 | below the threshold | 3.89 | below the threshold | below the threshold | below the threshold | below the threshold | below the threshold | below the threshold | 4.15 | 3.78 | 4.78 | below the threshold | pKd (DLG1_3, Q12959): 5.02; pKd (Inadl_2, Q8NI35): below the threshold; pKd (Inadl_8, Q8NI35): 3.32; pKd (NHERF3_1, Q5T2W1): 4.05; pKd (NHERF4_4, Q86UT5): below the threshold; pKd (PDZD2_2, O15018): 3.36; pKd (SCRIB_1, Q14160): 4.26; pKd (SCRIB_2, Q14160): 4.44; pKd (SNX27, Q96L92): 4.55; pKd (TJP3_3, O95049): below the threshold
